In this data set the test system is Escherichia coli TOP10. The experiment in a line: shrunken log2 fold change of peptide-encoding DNA abundance (4.5 h post-induction vs induction); higher = less antimicrobial activity (less host growth inhibition). Particulars: time post-induction: 4.5 h; library: site-saturation at positions 5, 18, 19, 20.
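Also: peptides expressed intracellularly from a pBAD plasmid library in pooled LB shake-flask culture, induced with 0.3% L-arabinose, DNA abundance read by NGS, three biological replicates, DESeq2 with apeglm shrinkage.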

For the sequence RRIRYRPPRLPRPRPRPKNHPRP, the “shrunken log2 fold change” value is -0.919. In the case of RRIRWRPPRLPRPRPRPLAAPRP it was 0.994; in that of RRIRLRPPRLPRPRPRPFFTPRP, -0.144.

Take RRIRFRPPRLPRPRPRPQEFPRP: the “shrunken log2 fold change” value stood at 0.0412. For RRIRCRPPRLPRPRPRPDDQPRP, the “shrunken log2 fold change” value is 0.23.

For the sequence RRIRARPPRLPRPRPRPFQRPRP, the “shrunken log2 fold change” value was -0.0439. The figure for RRIRARPPRLPRPRPRPTTAPRP is 0.514; for RRIRQRPPRLPRPRPRPVIYPRP it is -0.0661. In the case of RRIRSRPPRLPRPRPRPWPKPRP it was 0.228; in that of RRIRCRPPRLPRPRPRPIMWPRP, -0.123. In the case of RRIRQRPPRLPRPRPRPDYDPRP it was 0.003; in that of RRIRPRPPRLPRPRPRPIHTPRP, -0.177; in that of RRIRLRPPRLPRPRPRPRAMPRP, 0.373. Take RRIRERPPRLPRPRPRPIYYPRP: the “shrunken log2 fold change” value is -0.726. In the case of RRIRYRPPRLPRPRPRPRTGPRP it was -0.0225; in that of RRIRARPPRLPRPRPRPNREPRP, 0.226. In the case of RRIRMRPPRLPRPRPRPKWCPRP it was 0.0391. In the case of RRIRARPPRLPRPRPRPRSCPRP it was 0.306; in that of RRIRFRPPRLPRPRPRPYIAPRP, -1.11. In the case of RRIRPRPPRLPRPRPRPHAWPRP, the “shrunken log2 fold change” value came to 0.189. The figure for RRIRWRPPRLPRPRPRPMSNPRP is 0.0465; for RRIRSRPPRLPRPRPRPSYRPRP it is -0.131. The figure for RRIRFRPPRLPRPRPRPDTCPRP is -0.21; for RRIRVRPPRLPRPRPRPMNNPRP it is -0.694; for RRIRERPPRLPRPRPRPKHWPRP it is 0.0518. In the case of RRIRWRPPRLPRPRPRPEYNPRP it was 0.195. Regarding RRIRCRPPRLPRPRPRPKAWPRP, the “shrunken log2 fold change” value worked out at 0.132. In the case of RRIRVRPPRLPRPRPRPHTFPRP it was -0.105; in that of RRIRMRPPRLPRPRPRPNPYPRP, -0.0714. The figure for RRIRSRPPRLPRPRPRPATVPRP is -0.15; for RRIRGRPPRLPRPRPRPCKVPRP it is 0.00141.

As to RRIRKRPPRLPRPRPRPMQQPRP, the “shrunken log2 fold change” value was -0.000844. On to RRIRIRPPRLPRPRPRPTWHPRP, for which the “shrunken log2 fold change” value was -0.242. The figure for RRIRIRPPRLPRPRPRPKDQPRP is -0.196; for RRIRHRPPRLPRPRPRPRHCPRP it is 0.03; for RRIRDRPPRLPRPRPRPMSRPRP it is -0.107.

As for RRIRLRPPRLPRPRPRPQEIPRP, the “shrunken log2 fold change” value is -0.0701.

On to RRIRGRPPRLPRPRPRPTTCPRP, for which the “shrunken log2 fold change” value stood at 0.849. In the case of RRIRSRPPRLPRPRPRPHALPRP it was 0.0303; in that of RRIRCRPPRLPRPRPRPSFHPRP, -0.841; in that of RRIRHRPPRLPRPRPRPTFHPRP, -0.326. In the case of RRIRCRPPRLPRPRPRPYSDPRP it was -0.0426; in that of RRIRPRPPRLPRPRPRPHALPRP, -0.376. Turning to RRIRWRPPRLPRPRPRPKLKPRP, the “shrunken log2 fold change” value was 0.507. Take RRIRWRPPRLPRPRPRPNPIPRP: the “shrunken log2 fold change” value is -0.149.

Turning to RRIRFRPPRLPRPRPRPLMMPRP, the “shrunken log2 fold change” value was -0.347. For RRIRSRPPRLPRPRPRPGCRPRP, the “shrunken log2 fold change” value was determined as 0.293. In the case of RRIRNRPPRLPRPRPRPGTCPRP, the “shrunken log2 fold change” value was -0.0314. RRIRVRPPRLPRPRPRPKSSPRP: the “shrunken log2 fold change” value is -0.0704. In the case of RRIRRRPPRLPRPRPRPFNWPRP it was 0.0111; in that of RRIRERPPRLPRPRPRPKRSPRP, -0.0414. The figure for RRIRQRPPRLPRPRPRPIHDPRP is 0.0242. Turning to RRIRLRPPRLPRPRPRPGWKPRP, the “shrunken log2 fold change” value is -0.0726. In the case of RRIRKRPPRLPRPRPRPDTMPRP it was 0.224; in that of RRIRIRPPRLPRPRPRPKSIPRP, -0.14; in that of RRIRIRPPRLPRPRPRPTCDPRP, -0.369. For the sequence RRIRVRPPRLPRPRPRPELWPRP, the “shrunken log2 fold change” value came out at 0.459.

Take RRIRSRPPRLPRPRPRPWHPPRP: the “shrunken log2 fold change” value was -0.125. In the case of RRIRHRPPRLPRPRPRPLVGPRP it was 0.00867; in that of RRIRWRPPRLPRPRPRPCAKPRP, -0.0723. With RRIRLRPPRLPRPRPRPIHPPRP, the “shrunken log2 fold change” value is -0.168. In the case of RRIRWRPPRLPRPRPRPMGWPRP, the “shrunken log2 fold change” value was 0.299. As to RRIRTRPPRLPRPRPRPECVPRP, the “shrunken log2 fold change” value stood at 0.148. In the case of RRIRTRPPRLPRPRPRPLMPPRP, the “shrunken log2 fold change” value came out at 0.0315.

Take RRIRDRPPRLPRPRPRPPIWPRP: the “shrunken log2 fold change” value is 0.305. In the case of RRIRKRPPRLPRPRPRPMQDPRP it was -0.0916; in that of RRIRKRPPRLPRPRPRPAYGPRP, 0.397; in that of RRIRSRPPRLPRPRPRPKLSPRP, 0.352. In the case of RRIRFRPPRLPRPRPRPNQAPRP it was 0.138; in that of RRIRSRPPRLPRPRPRPPYFPRP, -0.0285. The figure for RRIRSRPPRLPRPRPRPKHIPRP is -0.368; for RRIRHRPPRLPRPRPRPKIDPRP it is -0.0926; for RRIRKRPPRLPRPRPRPETNPRP it is 2.35. With RRIRGRPPRLPRPRPRPWAQPRP, the “shrunken log2 fold change” value is -0.035. RRIRYRPPRLPRPRPRPAQQPRP: the “shrunken log2 fold change” value came out at 0.0788. In the case of RRIRYRPPRLPRPRPRPGYVPRP it was -1.05.

Regarding RRIRIRPPRLPRPRPRPGKQPRP, the “shrunken log2 fold change” value was -0.0943. The figure for RRIRNRPPRLPRPRPRPHVWPRP is 0.0415; for RRIRGRPPRLPRPRPRPSTLPRP it is 0.152. The figure for RRIRFRPPRLPRPRPRPTDSPRP is -0.0233; for RRIRYRPPRLPRPRPRPIFVPRP it is -0.418. In the case of RRIRWRPPRLPRPRPRPLETPRP, the “shrunken log2 fold change” value is -0.0608.

Consider RRIRGRPPRLPRPRPRPICHPRP, for which the “shrunken log2 fold change” value worked out at 0.378.

Turning to RRIRLRPPRLPRPRPRPIFQPRP, the “shrunken log2 fold change” value was -0.192. In the case of RRIRDRPPRLPRPRPRPVRDPRP it was 0.203; in that of RRIRTRPPRLPRPRPRPPQAPRP, 0.121; in that of RRIRHRPPRLPRPRPRPIQPPRP, 0.0532. The figure for RRIRQRPPRLPRPRPRPMPMPRP is -0.00149. The figure for RRIRFRPPRLPRPRPRPVQLPRP is -0.189. Regarding RRIRIRPPRLPRPRPRPDIEPRP, the “shrunken log2 fold change” value was -0.185. In the case of RRIRRRPPRLPRPRPRPCLKPRP it was -0.184. The figure for RRIRCRPPRLPRPRPRPLMYPRP is -0.606. In the case of RRIRSRPPRLPRPRPRPVCVPRP it was 0.0943. RRIRTRPPRLPRPRPRPNTLPRP: the “shrunken log2 fold change” value was -0.377.

With RRIRERPPRLPRPRPRPAQDPRP, the “shrunken log2 fold change” value was found to be 0.00521. In the case of RRIRPRPPRLPRPRPRPTNQPRP it was -0.182; in that of RRIRWRPPRLPRPRPRPNKNPRP, -0.0787. In the case of RRIRVRPPRLPRPRPRPFRKPRP it was -0.0712; in that of RRIRKRPPRLPRPRPRPTYDPRP, -0.0829. In the case of RRIRLRPPRLPRPRPRPLMLPRP it was -0.257; in that of RRIRYRPPRLPRPRPRPEPFPRP, 0.0898; in that of RRIRDRPPRLPRPRPRPETWPRP, 0.0111. RRIRWRPPRLPRPRPRPNCYPRP: the “shrunken log2 fold change” value is -0.0773. The figure for RRIRMRPPRLPRPRPRPNYMPRP is 1.06; for RRIRARPPRLPRPRPRPAPNPRP it is 0.737; for RRIRYRPPRLPRPRPRPKCMPRP it is -0.841. Consider RRIRMRPPRLPRPRPRPVILPRP, for which the “shrunken log2 fold change” value was -0.826. In the case of RRIRARPPRLPRPRPRPSCPPRP it was 0.131.

As to RRIRPRPPRLPRPRPRPRESPRP, the “shrunken log2 fold change” value was determined as 0.0752. Regarding RRIRGRPPRLPRPRPRPGARPRP, the “shrunken log2 fold change” value came out at 0.953. In the case of RRIRARPPRLPRPRPRPINRPRP it was 0.0108. The figure for RRIRRRPPRLPRPRPRPASRPRP is 0.202; for RRIRSRPPRLPRPRPRPHFTPRP it is -0.256. In the case of RRIRVRPPRLPRPRPRPCLHPRP it was -0.947. Regarding RRIRYRPPRLPRPRPRPYGNPRP, the “shrunken log2 fold change” value was -0.00695. In the case of RRIRQRPPRLPRPRPRPHWDPRP it was -0.224; in that of RRIRSRPPRLPRPRPRPRQSPRP, 0.113; in that of RRIRMRPPRLPRPRPRPDDNPRP, 2.27. As for RRIRCRPPRLPRPRPRPGPNPRP, the “shrunken log2 fold change” value stood at 0.296. Consider RRIRVRPPRLPRPRPRPRLWPRP, for which the “shrunken log2 fold change” value came out at 0.45.

RRIRTRPPRLPRPRPRPENCPRP: the “shrunken log2 fold change” value was found to be 0.072. Consider RRIRCRPPRLPRPRPRPVCKPRP, for which the “shrunken log2 fold change” value is -0.238. In the case of RRIRSRPPRLPRPRPRPDMVPRP, the “shrunken log2 fold change” value is -0.00858. In the case of RRIRFRPPRLPRPRPRPQHVPRP it was -0.315; in that of RRIRQRPPRLPRPRPRPDCQPRP, -0.0643.

The values above are taken from the supplement of paper PMC9112550, “Optimization of the antimicrobial peptide Bac7 by deep mutational scanning” (BMC Biology, 2022).
